From patent EP2717941B1 (TLA Targeted Immunotherapies AB, dated 2020)
One block for each binder: values may come before it. Groups on a side chain read outwards from the residue. *: point of attachment. Biotin = O=C1N[C@H]2[C@H](CS[C@H]2CCCCC(=O)*)N1; PEG = not defined here

Key:
Test in all cases: cell-based or functional assay
chemokine receptor CCR7 = biological target: T1, chemokine receptor CCR7 (human, UniProt P32248 25-378)
T1 sequence (looked up): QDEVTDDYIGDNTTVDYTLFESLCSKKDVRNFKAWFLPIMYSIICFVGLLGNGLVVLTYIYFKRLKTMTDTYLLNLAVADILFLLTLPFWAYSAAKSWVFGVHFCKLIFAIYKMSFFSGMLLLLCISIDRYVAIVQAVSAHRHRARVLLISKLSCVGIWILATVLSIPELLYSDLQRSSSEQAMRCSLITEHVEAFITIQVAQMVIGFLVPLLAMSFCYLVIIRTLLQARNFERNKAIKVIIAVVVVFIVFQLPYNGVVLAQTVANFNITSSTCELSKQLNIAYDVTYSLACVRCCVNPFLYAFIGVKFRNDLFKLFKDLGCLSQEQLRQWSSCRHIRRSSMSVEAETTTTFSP

hCCR5 = hCCR5 (human, UniProt P51681 1-352)
Chain of hCCR5 (P51681 whole entry): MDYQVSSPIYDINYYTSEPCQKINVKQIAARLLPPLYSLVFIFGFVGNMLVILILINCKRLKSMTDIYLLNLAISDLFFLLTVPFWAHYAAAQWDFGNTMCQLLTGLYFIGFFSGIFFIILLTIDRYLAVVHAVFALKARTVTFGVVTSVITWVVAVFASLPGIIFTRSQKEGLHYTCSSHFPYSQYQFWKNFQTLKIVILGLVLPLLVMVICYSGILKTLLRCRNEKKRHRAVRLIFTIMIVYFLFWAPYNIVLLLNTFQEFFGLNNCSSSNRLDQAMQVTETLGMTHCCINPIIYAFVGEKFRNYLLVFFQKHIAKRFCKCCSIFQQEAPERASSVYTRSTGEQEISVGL

hCXCR3 = biological target: T2, hCXCR3 (human, UniProt P49682 1-368)
T2 sequence (looked up): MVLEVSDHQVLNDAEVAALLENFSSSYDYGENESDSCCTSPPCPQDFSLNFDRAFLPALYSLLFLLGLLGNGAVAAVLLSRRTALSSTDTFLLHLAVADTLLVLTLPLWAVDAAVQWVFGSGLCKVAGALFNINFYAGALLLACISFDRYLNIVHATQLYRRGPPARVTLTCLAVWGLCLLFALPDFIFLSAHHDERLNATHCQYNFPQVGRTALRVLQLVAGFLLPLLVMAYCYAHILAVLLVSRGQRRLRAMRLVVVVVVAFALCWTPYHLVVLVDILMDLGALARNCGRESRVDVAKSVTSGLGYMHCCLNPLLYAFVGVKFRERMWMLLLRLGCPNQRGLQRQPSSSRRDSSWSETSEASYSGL

hCCR10 = biological target: T3, hCCR10 (human, UniProt P46092 1-362)
T3 sequence (looked up): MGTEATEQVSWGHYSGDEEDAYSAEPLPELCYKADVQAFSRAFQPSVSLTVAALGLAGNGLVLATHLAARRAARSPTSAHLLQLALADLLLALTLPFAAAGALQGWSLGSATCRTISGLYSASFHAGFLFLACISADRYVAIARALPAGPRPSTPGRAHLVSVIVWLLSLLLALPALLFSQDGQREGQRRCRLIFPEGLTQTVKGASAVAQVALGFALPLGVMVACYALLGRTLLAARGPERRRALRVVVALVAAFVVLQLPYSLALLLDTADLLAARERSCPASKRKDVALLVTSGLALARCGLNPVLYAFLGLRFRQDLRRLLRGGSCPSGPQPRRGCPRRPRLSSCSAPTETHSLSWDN

CCR4 = biological target: T4, CCR4 (human, UniProt P51679 1-360)
T4 sequence (looked up): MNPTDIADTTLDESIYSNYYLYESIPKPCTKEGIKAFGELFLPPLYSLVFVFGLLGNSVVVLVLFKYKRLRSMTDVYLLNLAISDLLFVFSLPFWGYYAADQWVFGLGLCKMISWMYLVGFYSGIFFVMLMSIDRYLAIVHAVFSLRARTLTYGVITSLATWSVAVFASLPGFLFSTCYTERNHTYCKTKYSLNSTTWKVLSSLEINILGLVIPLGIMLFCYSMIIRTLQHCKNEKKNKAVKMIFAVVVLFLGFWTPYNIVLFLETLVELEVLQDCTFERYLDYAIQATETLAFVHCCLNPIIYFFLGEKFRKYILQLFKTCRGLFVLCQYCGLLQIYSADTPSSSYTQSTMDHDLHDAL

EC50, agonist activity, Aequorin assay (chemokine receptor CCR7): 11 nM
B1: biotinMIP-3β (CCL19), MIP-3β derivatised at the ε-amino side chain functionality of Lys(78) with Biotin (ligand)
chain: GTNDAEDCCLSVTQKPIPGYIVRNFHYLLIKDGCRVPAVVFTTLRGRQLCAPPDQPWVERIIQRLQRTSAKMKRRSSX
modifications: additional Lys(78) = K(Biotin); assembled on Rink Amide resin (C-terminal amide)

EC50, agonist activity, Aequorin assay (hCCR5): 0.5 nM
B2: biotinRANTES (CCL5), RANTES derivatised at the ε-amino side chain functionality of Lys(67) with Biotin (ligand)
chain: SPYSSDTTPCCFAYIARPLPRAHIKEYFYTSGKCSNPAVVFVTRKNRQVCANPEKKWVREYINSLEK(Biotin)S
modifications: ends and bridges not checked

EC50, agonist activity, Aequorin assay (hCXCR3): 15.7 nM
B3: biotinITAC (CXCL11), ITAC derivatised with Biotin at the ε-amino side chain functionality of an additional Lysine inserted at the C-terminus after a PEG spacer (ligand)
chain: FPMFKRGRCLCIGPGVKAVKVADIEKASIMYPSNNCDKIEVIITLKENKGQRCLNPKSKQARLIIKKVERKNFX
modifications: X (position 74) is PEG-K(Biotin): PEG spacer between the protein's C-terminus and an additional biotinylated lysine

EC50, agonist activity, Aequorin assay (hCCR10): 49.4 nM
B4: biotinCTAC (CCL27), CTAC derivatised at the ε-amino side chain functionality of Lys(87) with PEG-Biotin (ligand)
chain: FLLPPSTACCTQLYRKPLSDKLLRKVIQVELQEADGDCHLQAFVLHLAQRSICIHPQNPSLSQWFEHQERKLHGTLPKLNFGMLRKK([PEG-Biotin])G
modifications: ends and bridges not checked

EC50, agonist activity, Aequorin assay (CCR4): 4.5 nM
B5: biotinMDC (CCL22), MDC derivatised at the ε-amino side chain functionality of Lys(66) with PEG-Biotin (ligand)
chain: GPYGANMEDSVCCRDYVRYRLPLRVVKHFYWTSDSCPRPGVVLLTFRDKEICADPRVPWVKMILNK([PEG-Biotin])LSQ-NH2
modifications: ends and bridges not checked

EC50, agonist activity, Aequorin assay (CCR4): 3.1 nM
B6: biotinTARC (CCL17), TARC derivatised at the ε-amino side chain functionality of Lys(72) with PEG-Biotin (ligand)
chain: ARGTNVGRECCLEYFKGAIPLRKLKTWYQTSEDCSRDAIVFVTVQGRAICSDPNNKRVKNAVKYLQSLERSK([PEG-Biotin])-NH2
modifications: ends and bridges not checked; also: TFA salt
